We go through one molecule from article PMC10281804, “The structural basis of the talin–KANK1 interaction that coordinates the actin and microtubule cytoskeletons at focal adhesions” (Open Biology, 2023).

For the test, the target named is T1, Mouse talin-1 R7R8 (mouse, UniProt P26039 1359-1659).
T1 construct: talin-1, mouse, rod domains R7 and R8 (R7R8 double domain module); 15N-labelled for the NMR experiments; also called talin R7R8; R7R8 module; source: expressed and purified as described previously [9]
In words: fluorescence polarisation; BODIPY-TMR coupled peptide at 0.5 µM in PBS pH 7.4, 5 mM TCEP, 0.05% Triton X-100; one-site total and nonspecific binding model. Particulars: both partners purified. On the technique in general: In fluorescence polarisation assays a small probe gives low polarisation when free and higher when bound to something large.

T1 sequence (P26039 1359-1659): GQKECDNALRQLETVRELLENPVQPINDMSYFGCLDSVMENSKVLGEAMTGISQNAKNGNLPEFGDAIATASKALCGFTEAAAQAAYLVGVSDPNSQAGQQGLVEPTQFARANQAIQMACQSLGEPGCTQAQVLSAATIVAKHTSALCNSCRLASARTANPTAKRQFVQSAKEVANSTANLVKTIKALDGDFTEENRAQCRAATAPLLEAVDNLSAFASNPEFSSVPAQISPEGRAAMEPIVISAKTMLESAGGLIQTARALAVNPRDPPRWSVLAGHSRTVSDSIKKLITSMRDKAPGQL

B1: KANK1 KN motif peptide (for FP), BODIPY-TMR coupled (peptide)
peptide: PYFVETPYGFQLDLDFVKYVDDIQKGNTIKKC
modifications: BODIPY-TMR coupled
notes: KANK1 KN motif, mouse residues 30-60; extra C-terminal cysteine printed beyond the stated limits 30-60; also called WT-KANK1; source: synthetic peptide, bought: GLBiochem (Shanghai)
The term Kd denotes the concentration at which binding is half-saturated. For the molecule B1, the Kd turned out to be 1200 nM.
